# B1: 28-mer 5-FU:A (dsDNA)
# DNA 1: CAGCTCTGTACATGAGCAGTGGTGACAC
# DNA 2: GTGTCACCACTGCTCAUGTACAGAGCTG
# modifications: 5-fluorouracil (X, written U) at position 17 of strand 2, opposite A12 of strand 1
# Legend:
# TDG WT = TDG WT (human, UniProt Q13569 1-410); assay: EMSA; 20 mM HEPES pH 7.3, 1 mM EDTA, 10 mM (NH4)2SO4, 1 mM DTT, 0.2% Tween-20, 30 mM KCl; 2 nM DNA, 30 min at room temperature; 6% native PAGE at 4 C; settings: protein: recombinant; tags: N-terminal 6xHis (pET28a); label: 5'-32P on the template oligonucleotide; blunt
# Sequence of TDG WT (Q13569 whole entry): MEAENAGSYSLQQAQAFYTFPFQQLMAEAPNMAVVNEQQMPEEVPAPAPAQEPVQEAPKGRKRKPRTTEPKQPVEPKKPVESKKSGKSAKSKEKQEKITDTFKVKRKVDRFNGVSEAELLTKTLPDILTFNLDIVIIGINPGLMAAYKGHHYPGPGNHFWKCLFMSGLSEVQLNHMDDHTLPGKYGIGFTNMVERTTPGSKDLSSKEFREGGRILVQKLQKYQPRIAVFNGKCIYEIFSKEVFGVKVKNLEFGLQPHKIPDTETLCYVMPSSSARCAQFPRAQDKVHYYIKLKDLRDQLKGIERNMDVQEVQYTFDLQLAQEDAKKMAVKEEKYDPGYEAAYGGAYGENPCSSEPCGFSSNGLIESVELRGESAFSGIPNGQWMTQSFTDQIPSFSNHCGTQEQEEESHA
# TDG G199S = TDG G199S (human (rs4135113 variant), UniProt Q13569 1-410, G199S); assay: as above; settings: protein: recombinant; tags: N-terminal 6xHis (pET28a); label: 5'-32P on the template oligonucleotide; blunt
# Sequence of TDG G199S (Q13569 whole entry G199S): as the sequence (Q13569 whole entry) above, with G199S counted along it
binder,measurement,setting,value
B1,Kd,TDG WT,77 ± 13 nM
same,Kd,TDG G199S,41 ± 5 nM
